Measurements from paper PMC7672459, “Detection of genomic G-quadruplexes in living cells using a small artificial protein”.

What was measured:
G4P [1] = biological target: T1, G4P (artificial (RHAU-derived), UniProt Q9H2U1 53-75); experiment: EMSA; K+; only 20% of DNA bound at saturation; low-nM Kd, number only in figure; EMSA: 20 mM Tris-HCl pH 7.4, 75 mM KCl, 1 mM EDTA, 0.4 mg/ml BSA, 10 nM DNA, 4 C (or 37 C), 1 h; dsDNA with 30% PEG 200; pull-down: 20 mM Tris-HCl pH 7.4, 150 mM KCl, 1 mM EDTA, 0.5% Triton X-100, 4 C; conditions: protein: recombinant, tags: N-terminal HIS, C-terminal GTGSGA-3xFLAG, label: 5' FAM
T1 chain: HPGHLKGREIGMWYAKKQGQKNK

G4P [2] = biological target: T1, G4P; experiment: competition; competitor of FAM c-KIT/KRAS G4; EMSA: 20 mM Tris-HCl pH 7.4, 75 mM KCl, 1 mM EDTA, 0.4 mg/ml BSA, 10 nM DNA, 4 C (or 37 C), 1 h; dsDNA with 30% PEG 200; pull-down: 20 mM Tris-HCl pH 7.4, 150 mM KCl, 1 mM EDTA, 0.5% Triton X-100, 4 C; conditions: protein: recombinant; tags: N-terminal HIS; C-terminal GTGSGA-3xFLAG; label: 5' FAM; parallel G4
G4P [3] = biological target: T1, G4P; experiment: EMSA; K+; two distinct Kd values, numbers only in figure; EMSA: 20 mM Tris-HCl pH 7.4, 75 mM KCl, 1 mM EDTA, 0.4 mg/ml BSA, 10 nM DNA, 4 C (or 37 C), 1 h; dsDNA with 30% PEG 200; pull-down: 20 mM Tris-HCl pH 7.4, 150 mM KCl, 1 mM EDTA, 0.5% Triton X-100, 4 C; conditions: protein: recombinant; tags: N-terminal HIS; C-terminal GTGSGA-3xFLAG; label: 5' FAM; parallel broken-strand G4

B1: Tel (structured_DNA)
DNA: GGTTAGGGTTAGGGTTAGGGTTAGGGTTAG
G4P [1]; mixed parallel/antiparallel G4
  binding result: binds

B2: C9orf72 (structured_DNA)
DNA: GGGGCCGGGGCCGGGGCCGGGGCC
G4P [1]; antiparallel G4, hairpin in equilibrium
  binding result: binds

B3: c-KIT (structured_DNA)
DNA: TTCGGGCGGGCGCGAGGGAGGGTTTT
G4P [2]
  binding result: binds

B4: PDGFR-beta (structured_DNA)
DNA: AAGGGAGGGCGGCGGGGCAGGGA
G4P [3]
  binding result: binds

B5: KRAS (structured_DNA)
DNA: AGGGCGGTGTGGGAAGAGGGAAGAGGGGGAGG
G4P [2]
  binding result: binds
